# T1: MPP2, Q14168
# T1 sequence (Q14168 180-250, limits assumed, looked up): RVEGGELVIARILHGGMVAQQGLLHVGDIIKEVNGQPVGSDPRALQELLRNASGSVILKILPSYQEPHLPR
# T2: RADIL, Q96JH8
# T2 sequence (Q96JH8 971-1071, limits assumed, looked up): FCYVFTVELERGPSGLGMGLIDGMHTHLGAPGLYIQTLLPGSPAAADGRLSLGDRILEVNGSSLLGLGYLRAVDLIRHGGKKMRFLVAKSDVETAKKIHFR
# T3: LIN7B, Q9HAP6
# T3 sequence (Q9HAP6 88-185, limits assumed, looked up): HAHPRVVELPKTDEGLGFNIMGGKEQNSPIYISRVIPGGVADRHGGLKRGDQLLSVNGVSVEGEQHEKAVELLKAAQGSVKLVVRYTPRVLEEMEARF
# T4: RHPN1, Q8TCX5
# T4 sequence (Q8TCX5 508-602, limits assumed, looked up): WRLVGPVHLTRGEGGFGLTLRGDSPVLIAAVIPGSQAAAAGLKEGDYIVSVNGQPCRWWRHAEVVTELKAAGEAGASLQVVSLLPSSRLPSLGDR
# T5: ARHGAP21, Q5T5U3
# T5 sequence (Q5T5U3 45-169, limits assumed, looked up): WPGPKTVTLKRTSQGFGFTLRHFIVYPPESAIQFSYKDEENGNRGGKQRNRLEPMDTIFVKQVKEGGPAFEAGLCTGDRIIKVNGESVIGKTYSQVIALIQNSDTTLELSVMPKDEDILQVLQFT
# T6: APBA2_2, Q99767
# T6 sequence (Q99767 654-744, limits assumed, looked up): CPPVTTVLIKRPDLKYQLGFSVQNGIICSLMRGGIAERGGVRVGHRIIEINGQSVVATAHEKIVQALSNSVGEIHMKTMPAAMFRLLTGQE
# T7: DFNB31_3, Q9P202
# T7 sequence (Q9P202 811-907, limits assumed, looked up): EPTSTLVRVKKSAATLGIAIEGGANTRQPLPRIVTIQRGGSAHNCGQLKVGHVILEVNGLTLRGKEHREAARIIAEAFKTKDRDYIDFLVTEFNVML
# T8: NHERF3_1, Q5T2W1
# T8 sequence (Q5T2W1 4-100, limits assumed, looked up): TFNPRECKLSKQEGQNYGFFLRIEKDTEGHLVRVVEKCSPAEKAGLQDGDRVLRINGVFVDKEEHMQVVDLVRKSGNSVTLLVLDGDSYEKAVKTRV
# T9: TIAM2, Q8IVF5
# T9 sequence (Q8IVF5 885-986, limits assumed, looked up): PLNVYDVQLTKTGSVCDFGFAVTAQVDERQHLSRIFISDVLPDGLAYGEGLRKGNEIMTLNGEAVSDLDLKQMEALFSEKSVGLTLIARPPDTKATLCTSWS
# T10: NHERF3_3, Q5T2W1
# T10 sequence (Q5T2W1 238-333, limits assumed, looked up): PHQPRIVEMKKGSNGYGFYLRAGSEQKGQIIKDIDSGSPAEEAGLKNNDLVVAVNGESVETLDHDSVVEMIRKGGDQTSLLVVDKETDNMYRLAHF
# Legend:
# Assay in all cases: holdup assay
# Parameters in all cases: key: below the threshold = too weak to quantify, mostly under pKd 3.1 to 4
# DLG1_1, Q12959 = target: DLG1_1, Q12959
# Inadl_10, Q8NI35 = target: Inadl_10, Q8NI35
# MPP2, Q14168 = target: T1, MPP2, Q14168
# RADIL, Q96JH8 = target: T2, RADIL, Q96JH8
# LIN7B, Q9HAP6 = target: T3, LIN7B, Q9HAP6
# RHPN1, Q8TCX5 = target: T4, RHPN1, Q8TCX5
# Inadl_2, Q8NI35 = target: Inadl_2, Q8NI35
# ARHGAP21, Q5T5U3 = target: T5, ARHGAP21, Q5T5U3
# APBA2_2, Q99767 = target: T6, APBA2_2, Q99767
# DFNB31_3, Q9P202 = target: T7, DFNB31_3, Q9P202
# DLG5_1, Q8TDM6 = target: DLG5_1, Q8TDM6
# DLG2_2, Q15700 = target: DLG2_2, Q15700
# DLG1_2, Q12959 = target: DLG1_2, Q12959
# Inadl_6, Q8NI35 = target: Inadl_6, Q8NI35
# NHERF3_1, Q5T2W1 = target: T8, NHERF3_1, Q5T2W1
# GIPC2, Q8TF65 = target: GIPC2, Q8TF65
# TIAM2, Q8IVF5 = target: T9, TIAM2, Q8IVF5
# GRID2IP_1, A4D2P6 = target: GRID2IP_1, A4D2P6
# PDLIM1, O00151 = target: PDLIM1, O00151
# GRASP, Q7Z6J2 = target: GRASP, Q7Z6J2
# PDZRN4_1, Q6ZMN7 = target: PDZRN4_1, Q6ZMN7
# MAGI2_2, Q86UL8 = target: MAGI2_2, Q86UL8
# LDB3, O75112 = target: LDB3, O75112
# NHERF4_1, Q86UT5-2 = target: NHERF4_1, Q86UT5-2
# Inadl_8, Q8NI35 = target: Inadl_8, Q8NI35
# ARHGEF12, Q9NZN5-2 = target: ARHGEF12, Q9NZN5-2
# NHERF3_3, Q5T2W1 = target: T10, NHERF3_3, Q5T2W1
# [1] = plain residues with an end cap or a label only (N-terminal biotin on a linker: none)
# [2] = plain residues with an end cap or a label only (N-terminal biotin on a linker: ado-ado)
# [3] = plain residues with an end cap or a label only (N-terminal biotin on a linker: ttds)
# Chain of GIPC2, Q8TF65 (Q8TF65 112-203): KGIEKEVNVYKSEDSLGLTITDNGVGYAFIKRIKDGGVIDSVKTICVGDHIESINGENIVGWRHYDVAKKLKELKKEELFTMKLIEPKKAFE
# Chain of Inadl_2, Q8NI35 (Q8NI35 238-335): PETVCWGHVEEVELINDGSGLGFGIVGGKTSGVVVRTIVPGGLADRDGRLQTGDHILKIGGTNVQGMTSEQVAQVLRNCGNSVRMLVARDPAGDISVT
# Chain of DLG5_1, Q8TDM6 (Q8TDM6 617-713): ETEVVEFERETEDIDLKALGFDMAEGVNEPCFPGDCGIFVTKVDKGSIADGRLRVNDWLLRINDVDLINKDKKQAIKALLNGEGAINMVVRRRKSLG
# Chain of DLG2_2, Q15700 (Q15700 189-283): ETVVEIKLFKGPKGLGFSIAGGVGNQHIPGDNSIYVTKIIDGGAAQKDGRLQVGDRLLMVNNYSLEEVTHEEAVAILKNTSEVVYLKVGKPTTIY
# Chain of PDLIM1, O00151 (O00151 1-87): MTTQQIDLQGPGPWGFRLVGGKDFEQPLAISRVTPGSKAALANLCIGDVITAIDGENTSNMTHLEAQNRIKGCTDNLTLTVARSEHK
# Chain of MAGI2_2, Q86UL8 (Q86UL8 410-522): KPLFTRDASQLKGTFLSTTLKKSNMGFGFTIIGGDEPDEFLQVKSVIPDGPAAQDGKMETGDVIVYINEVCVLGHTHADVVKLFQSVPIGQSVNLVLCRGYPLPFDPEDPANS
# Chain of GRASP, Q7Z6J2 (Q7Z6J2 96-193): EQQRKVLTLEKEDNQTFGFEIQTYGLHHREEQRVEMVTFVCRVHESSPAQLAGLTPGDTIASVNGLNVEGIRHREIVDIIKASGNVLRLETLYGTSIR
# Chain of LDB3, O75112 (O75112 1-94): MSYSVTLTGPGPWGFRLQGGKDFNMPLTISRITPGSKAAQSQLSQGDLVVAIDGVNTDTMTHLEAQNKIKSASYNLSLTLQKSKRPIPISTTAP
# Chain of NHERF4_1, Q86UT5-2 (Q86UT5 other isoform, or with tags, fused parts or gaps): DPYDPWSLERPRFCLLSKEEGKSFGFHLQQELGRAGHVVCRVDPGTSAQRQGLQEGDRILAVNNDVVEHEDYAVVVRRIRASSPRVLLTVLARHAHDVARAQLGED
# Chain of Inadl_8, Q8NI35 (Q8NI35 1425-1530): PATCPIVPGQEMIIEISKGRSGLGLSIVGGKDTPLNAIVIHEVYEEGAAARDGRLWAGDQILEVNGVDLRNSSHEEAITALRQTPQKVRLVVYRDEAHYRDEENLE
# Chain of Inadl_6, Q8NI35 (Q8NI35 1058-1167): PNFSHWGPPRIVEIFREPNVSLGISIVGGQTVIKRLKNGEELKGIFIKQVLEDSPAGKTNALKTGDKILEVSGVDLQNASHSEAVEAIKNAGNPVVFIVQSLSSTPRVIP
# Chain of Inadl_10, Q8NI35 (Q8NI35 1673-1763): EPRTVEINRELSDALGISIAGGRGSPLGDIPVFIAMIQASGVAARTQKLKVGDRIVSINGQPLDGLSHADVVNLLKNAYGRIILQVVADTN
# Chain of GRID2IP_1, A4D2P6 (A4D2P6 1-87): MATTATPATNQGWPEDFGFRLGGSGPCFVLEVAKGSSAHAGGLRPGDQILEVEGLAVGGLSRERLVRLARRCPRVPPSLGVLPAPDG
# Chain of ARHGEF12, Q9NZN5-2 (Q9NZN5 other isoform, or with tags, fused parts or gaps): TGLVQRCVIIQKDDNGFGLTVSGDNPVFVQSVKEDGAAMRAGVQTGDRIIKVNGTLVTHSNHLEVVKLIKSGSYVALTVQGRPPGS
# Chain of PDZRN4_1, Q6ZMN7 (Q6ZMN7 213-318): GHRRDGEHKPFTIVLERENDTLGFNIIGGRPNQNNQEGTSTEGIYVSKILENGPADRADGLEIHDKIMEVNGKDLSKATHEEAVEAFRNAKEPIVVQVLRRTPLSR
binder,measurement,setting,value
"DSKPPLPPDEWV [MERS-E, K9N5R3]",pKd,"DLG1_1, Q12959; [1]",below the threshold
same,pKd,"Inadl_10, Q8NI35; [1]",below the threshold
same,pKd,"MPP2, Q14168; [1]",below the threshold
same,pKd,"RADIL, Q96JH8; [1]",4.06
same,pKd,"LIN7B, Q9HAP6; [1]",below the threshold
same,pKd,"RHPN1, Q8TCX5; [1]",below the threshold
same,pKd,"Inadl_2, Q8NI35; [1]",below the threshold
same,pKd,"ARHGAP21, Q5T5U3; [1]",3.76
same,pKd,"APBA2_2, Q99767; [1]",below the threshold
same,pKd,"DFNB31_3, Q9P202; [1]",below the threshold
same,pKd,"DLG5_1, Q8TDM6; [1]",below the threshold
same,pKd,"DLG2_2, Q15700; [1]",below the threshold
same,pKd,"DLG1_2, Q12959; [1]",3.57
same,pKd,"Inadl_6, Q8NI35; [1]",3.81
same,pKd,"NHERF3_1, Q5T2W1; [1]",below the threshold
same,pKd,"GIPC2, Q8TF65; [1]",below the threshold
same,pKd,"TIAM2, Q8IVF5; [1]",below the threshold
same,pKd,"GRID2IP_1, A4D2P6; [1]",3.57
same,pKd,"PDLIM1, O00151; [1]",below the threshold
same,pKd,"GRASP, Q7Z6J2; [1]",below the threshold
same,pKd,"PDZRN4_1, Q6ZMN7; [1]",3.49
same,pKd,"MAGI2_2, Q86UL8; [1]",below the threshold
same,pKd,"LDB3, O75112; [1]",below the threshold
same,pKd,"NHERF4_1, Q86UT5-2; [1]",below the threshold
same,pKd,"Inadl_8, Q8NI35; [1]",3.55
same,pKd,"ARHGEF12, Q9NZN5-2; [1]",3.76
same,pKd,"NHERF3_3, Q5T2W1; [1]",below the threshold
"RGGFGRQTQI [NCBP2L, A6PVI3]",pKd,"DLG1_1, Q12959; [2]",4.39
same,pKd,"Inadl_10, Q8NI35; [2]",below the threshold
same,pKd,"MPP2, Q14168; [2]",below the threshold
same,pKd,"RADIL, Q96JH8; [2]",below the threshold
same,pKd,"LIN7B, Q9HAP6; [2]",3.89
same,pKd,"RHPN1, Q8TCX5; [2]",4.5
same,pKd,"Inadl_2, Q8NI35; [2]",below the threshold
same,pKd,"ARHGAP21, Q5T5U3; [2]",below the threshold
same,pKd,"APBA2_2, Q99767; [2]",below the threshold
same,pKd,"DFNB31_3, Q9P202; [2]",3.67
same,pKd,"DLG5_1, Q8TDM6; [2]",below the threshold
same,pKd,"DLG2_2, Q15700; [2]",4.65
same,pKd,"DLG1_2, Q12959; [2]",4.92
same,pKd,"Inadl_6, Q8NI35; [2]",below the threshold
same,pKd,"NHERF3_1, Q5T2W1; [2]",4.54
same,pKd,"GIPC2, Q8TF65; [2]",below the threshold
same,pKd,"TIAM2, Q8IVF5; [2]",4.02
same,pKd,"GRID2IP_1, A4D2P6; [2]",below the threshold
same,pKd,"PDLIM1, O00151; [2]",below the threshold
same,pKd,"GRASP, Q7Z6J2; [2]",below the threshold
same,pKd,"PDZRN4_1, Q6ZMN7; [2]",below the threshold
same,pKd,"MAGI2_2, Q86UL8; [2]",4.48
same,pKd,"LDB3, O75112; [2]",3.66
same,pKd,"NHERF4_1, Q86UT5-2; [2]",3.8
same,pKd,"Inadl_8, Q8NI35; [2]",3.49
same,pKd,"ARHGEF12, Q9NZN5-2; [2]",4.28
same,pKd,"NHERF3_3, Q5T2W1; [2]",below the threshold
"TGDTLEKFVEGL [CBP, Q92793]",pKd,"DLG1_1, Q12959; [3]",below the threshold
same,pKd,"Inadl_10, Q8NI35; [3]",below the threshold
same,pKd,"MPP2, Q14168; [3]",below the threshold
same,pKd,"RADIL, Q96JH8; [3]",below the threshold
same,pKd,"LIN7B, Q9HAP6; [3]",below the threshold
same,pKd,"RHPN1, Q8TCX5; [3]",below the threshold
same,pKd,"Inadl_2, Q8NI35; [3]",below the threshold
same,pKd,"ARHGAP21, Q5T5U3; [3]",below the threshold
same,pKd,"APBA2_2, Q99767; [3]",below the threshold
same,pKd,"DFNB31_3, Q9P202; [3]",below the threshold
same,pKd,"DLG5_1, Q8TDM6; [3]",below the threshold
same,pKd,"DLG2_2, Q15700; [3]",below the threshold
same,pKd,"DLG1_2, Q12959; [3]",below the threshold
same,pKd,"Inadl_6, Q8NI35; [3]",below the threshold
same,pKd,"NHERF3_1, Q5T2W1; [3]",below the threshold
same,pKd,"GIPC2, Q8TF65; [3]",below the threshold
same,pKd,"TIAM2, Q8IVF5; [3]",below the threshold
same,pKd,"GRID2IP_1, A4D2P6; [3]",below the threshold
same,pKd,"PDLIM1, O00151; [3]",below the threshold
same,pKd,"GRASP, Q7Z6J2; [3]",below the threshold
same,pKd,"PDZRN4_1, Q6ZMN7; [3]",below the threshold
same,pKd,"MAGI2_2, Q86UL8; [3]",below the threshold
same,pKd,"LDB3, O75112; [3]",below the threshold
same,pKd,"NHERF4_1, Q86UT5-2; [3]",3.71
same,pKd,"Inadl_8, Q8NI35; [3]",below the threshold
same,pKd,"ARHGEF12, Q9NZN5-2; [3]",below the threshold
same,pKd,"NHERF3_3, Q5T2W1; [3]",below the threshold
"HRTCYLVTQL [ASIC3, Q9UHC3]",pKd,"DLG1_1, Q12959; [3]",3.97
same,pKd,"Inadl_10, Q8NI35; [3]",3.84
same,pKd,"MPP2, Q14168; [3]",below the threshold
same,pKd,"RADIL, Q96JH8; [3]",4.43
same,pKd,"LIN7B, Q9HAP6; [3]",3.38
same,pKd,"RHPN1, Q8TCX5; [3]",4.46
same,pKd,"Inadl_2, Q8NI35; [3]",below the threshold
same,pKd,"ARHGAP21, Q5T5U3; [3]",3.47
same,pKd,"APBA2_2, Q99767; [3]",below the threshold
same,pKd,"DFNB31_3, Q9P202; [3]",4.25
same,pKd,"DLG5_1, Q8TDM6; [3]",below the threshold
same,pKd,"DLG2_2, Q15700; [3]",3.93
same,pKd,"DLG1_2, Q12959; [3]",4.12
same,pKd,"Inadl_6, Q8NI35; [3]",4.23
same,pKd,"NHERF3_1, Q5T2W1; [3]",4.8
same,pKd,"GIPC2, Q8TF65; [3]",below the threshold
same,pKd,"TIAM2, Q8IVF5; [3]",3.3
same,pKd,"GRID2IP_1, A4D2P6; [3]",below the threshold
same,pKd,"PDLIM1, O00151; [3]",3.46
same,pKd,"GRASP, Q7Z6J2; [3]",4.77
same,pKd,"PDZRN4_1, Q6ZMN7; [3]",4.24
same,pKd,"MAGI2_2, Q86UL8; [3]",4.14
same,pKd,"LDB3, O75112; [3]",below the threshold
same,pKd,"NHERF4_1, Q86UT5-2; [3]",4.49
same,pKd,"Inadl_8, Q8NI35; [3]",3.8
same,pKd,"ARHGEF12, Q9NZN5-2; [3]",5.63
same,pKd,"NHERF3_3, Q5T2W1; [3]",3.52

# From PMC9482650, “Quantitative fragmentomics allow affinity mapping of interactomes” (Nature Communications, 2022)
